The text below walks through data of the supplement of paper PMC9170038.

For the data set, the system named is MS2 coat protein. Put plainly: apparent KD of MS2 coat protein; designed switch direction (-1 OFF switch, 1 ON switch): -1; higher = weaker reporter binding. The method, boiled down: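 Apparent KD, taken as the median over clusters for each design, was obtained by curve-fitting normalised cluster fluorescence. Designed RNA switches had been transcribed on Illumina chips by stalled E. coli RNA polymerase and titrated with SNAP-549-labelled MS2 coat protein, doubling from 0.7 or 1.5 nM to 3 µM.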

Setting [1] is: Eterna round: R95, input ligand: microRNA oligo, concentration not stated.
[2] abbreviates: Eterna round: R95, input ligand: FMN 200 uM.
The mark [3] stands for this setting: Eterna round: R95, input ligand: none.
The mark [4] stands for this setting: input ligand: microRNA oligo, concentration not stated.

“CUCUGACAUGAGGAUCACCCAUGUGAGGAUAUGAUGCAGCAGUGGUCUACGCUGUGCAUCAGAAGGCACAUGUG (puzzle: Exclusion 1)”: the “apparent KD of MS2 coat protein” value under setting [1] is 0.124 µM.
Consider “CUCUUACAUGAGGAUCACCCAUGUGAGGAUAUGCCCGGAGUAGCAGCAGAUCCUCUGGGCAGAAGGCACGUAGG [Eternabot (L1) Solution 98] (Eterna round: R97, puzzle: Exclusion 1)”, for which the “apparent KD of MS2 coat protein” value is, setting by setting: (input ligand: FMN 200 uM) 0.144 µM; (input ligand: none) 0.123 µM.
Take “CUCUUGUCAGGAUAUCUAAGCCACCUCCGGGCGGCCGAAUUAGAGAAGGGACAUGAGGAUCACCCAUGUAAAAG [Qumabi] (puzzle: Exclusion 4)”: the “apparent KD of MS2 coat protein” value reads like this: under setting [2], 0.03 µM; under setting [1], 0.138 µM; under setting [3], 0.174 µM.
In the case of “CUGAACCCGGUAGGAUAUAUUGUGGGCGGGCGUGGAACGACAUGAGGAUCACCCAUGUGAUUGAGGUAGAAGGGCCGAGAGGUU [Excl-NG2-LRO17] (Eterna round: R96, puzzle: Exclusion NG 2)”, the “apparent KD of MS2 coat protein” value was found to be 0.0426 µM (input ligand: FMN 200 uM), 0.031 µM under setting [4] and 0.0428 µM (input ligand: none).
For “CUGACGUCAGGAUAUAGCAUACACUGACUAGAUGGACAGGGUUAGAAGGGACAUGAGGAUCACCCAUGUGGUUU [Eternabot (L1) Solution 81] (Eterna round: R97, puzzle: Exclusion 4)”, the “apparent KD of MS2 coat protein” value stood at 0.0563 µM (input ligand: FMN 200 uM) and 0.0505 µM (input ligand: none).
Turning to “CUGAGCAGACGGAAAUCCAACAUGAGGAUCACCCAUGUCUCAAAAGCUUUUUGCUUGUCUUAUUCUCCUCUGUUCUC [Edtile] (puzzle: Sensor v3, turn-off variant 1)”, the “apparent KD of MS2 coat protein” value by setting is: under setting [2], 0.0138 µM; under setting [1], 0.0712 µM; under setting [3], 0.0129 µM.
In the same order, the values of “CUGAGCAGACGGAGAUCCAACAUGAGGAUCACCCAUGUCUCAAAAGCUCUUUGCUCGUCUUAUCCUCCUCUGUUCUC [Leriedor] (puzzle: Sensor v3, turn-off variant 1)” are 0.0315 µM, 0.333 µM and 0.0301 µM.
In the case of “CUGAGCAGACGGAGAUCCAACAUGAGGAUCACCCAUGUCUCAAAAGCUUUUUGCUUGUCUUAUUCUCCUCUGUUCUC [Bieda] (puzzle: Sensor v3, turn-off variant 1)”, the “apparent KD of MS2 coat protein” value reads like this: under setting [2], 0.0135 µM; under setting [1], 0.0355 µM; under setting [3], 0.0111 µM.
Turning to “CUGAGGUAGCGGUCCUAUGACAUGAGGAUCACCCAUGUACCUUGCUAUAAGCUUUUUGCUCGUCUUAUGAUUCUCGG [JL Atriat mod 7] (puzzle: Sensor v3, turn-off variant 1)”, the “apparent KD of MS2 coat protein” value runs as follows: under setting [2], 0.246 µM; under setting [1], 0.713 µM; under setting [3], 0.302 µM.
For “CUGAGUAGUCAGGAUAUGCUGUACAAAAGUACAGCAGAAGGGAUUACAUGAGGAUCACCCAUGUGAACUUCAUG [)mei Ex6 B21] (Eterna round: R97, puzzle: Exclusion 6)”, the “apparent KD of MS2 coat protein” value runs as follows: (input ligand: FMN 200 uM) 0.681 µM; (input ligand: none) 0.652 µM.
On the same counts, the results for “CUGAUGUGAGGAUAUCUACGCCAUGUCUUUGACAUGGCGCAAGAGAAGGCACAUGAGGAUCACCCAUGUACUUC [jl-ex4-4.41 ViennaUCT mod] (Eterna round: R97, puzzle: Exclusion 4)” are 0.143 µM and 0.0279 µM.
Regarding “CUGCUCCGUGUAGGAUAUGCGCGCAACCAACGCGCAGAAGGACAUGAGGAUCACCCAUGUAUGUUAUUAUCACGUGAGGCGCAA [Design 32] (Eterna round: R96, puzzle: Exclusion NG 1)”, the “apparent KD of MS2 coat protein” value came out at 0.0257 µM (input ligand: FMN 200 uM), 0.0138 µM under setting [4] and 0.0185 µM (input ligand: none).
On the same counts, the results for “CUGCUCCGUGUAGGAUAUGCGCGCACCCACCGCGCAGAAGGACAUGAGGAUCACCCAUGUAUGUUAUUAUCACGUGAGGCGCAG [Design 35] (Eterna round: R96, puzzle: Exclusion NG 1)” are 0.0296 µM, 0.0136 µM and 0.0192 µM.
In the same order, the values of “CUGCUGAAGCUUUGCUUUAGUCGUACAUGAGGAUCACCCAUGUAGGAUAUGGUAGGCUUUGCUUACUAGAAGGAUAGAGUGAUC [salish99_ExNG3_r04_604] (Eterna round: R96, puzzle: Exclusion NG 3)” are 0.072 µM, 0.0824 µM and 0.0619 µM.
In the same order, the values of “CUGCUGGAGCGGCGCUUUGGUCGUACAUGAGGAUCACCCAUGUAGGAUAUGGUAAAAUUCGCCUGCUAGAAGGAUAGAGUGGUC [salish99_ExNG3_r04_617] (Eterna round: R96, puzzle: Exclusion NG 3)” are 0.135 µM, 0.0625 µM and 0.0881 µM.
For “CUGGAGUCAGGAUAUAGGGCGGCUAUAACGCUCGCGCCGACCUAGAAGGGACUUGAGGAUCACCCAAGUAAAAU [Teerlaxe] (Eterna round: R97, puzzle: Exclusion 4)”, the “apparent KD of MS2 coat protein” value came out at 0.167 µM (input ligand: FMN 200 uM) and 0.0551 µM (input ligand: none).
As for “CUGGUCCGAGGAUAUAUUAAGUGAAACAUGAGGAUCACCCAUGUUAUUUAAUGGAAAUAAAUAGAAGGCGGACUAG [Mat - Exclusion 5 - JL mod - D55] (puzzle: Exclusion 5)”, the “apparent KD of MS2 coat protein” value is, setting by setting: under setting [2], 0.0344 µM; under setting [1], 0.0337 µM; under setting [3], 0.0599 µM.
On the same counts, the results for “CUGGUCCGAGGAUAUAUUAAGUGAUACAUGAGGAUCACCCAUGUAAUUUAAUGGAUAUAAAUAGAAGGCGGACUAG [Mat - Exclusion 5 - JL mod - D48] (puzzle: Exclusion 5)” are 0.0429 µM, 0.0264 µM and 0.0328 µM.
“CUGGUCCGAGGAUAUAUUAAGUGAUACAUGAGGAUCACCCAUGUAAUUUGAUGGAAGUAAAUAGAAGGCGGACUAG [Mat - Exclusion 5 - JL mod - D45] (puzzle: Exclusion 5)”: the “apparent KD of MS2 coat protein” value was found to be 0.0342 µM under setting [2], 0.043 µM under setting [1] and 0.074 µM under setting [3].
Consider “CUGGUCCGAGGAUAUAUUAAGUGAUACAUGAGGAUCACCCAUGUUAUUUGAUGGAUAUUAAUAGAAGGCGGACUAG [Mat - Exclusion 5 - JL mod - D75] (puzzle: Exclusion 5)”, for which the “apparent KD of MS2 coat protein” value is, setting by setting: under setting [2], 0.0319 µM; under setting [1], 0.0188 µM; under setting [3], 0.0287 µM.
In the same order, the values of “CUGGUCCGAGGAUAUAUUUAGUGAAACAUGAGGAUCACCCAUGUUAUUAGAUGGAUGUAAAUAGAAGGCGGACUAG [Mat - Exclusion 5 - JL mod - D63] (puzzle: Exclusion 5)” are 0.0185 µM, 0.0204 µM and 0.0238 µM.
With “CUGGUGUGAGGAUAUCAAAGACCUCGGGAAAGAACCGAGAAUGAGAAGGCACAUGAGGAUCACCCAUGUAACAA [Enerteon] (puzzle: Exclusion 4)”, the “apparent KD of MS2 coat protein” value under setting [1] turned out to be 0.0179 µM.
The same measure, in the same setting: the figure for “CUGGUGUGAGGAUAUCAAAGACCUCGGGAUAGUACCGAGGAUGAGAAGGCACAUGAGGAUCACCCAUGUAACAA [Armaleti] (puzzle: Exclusion 4)” is 0.0221 µM; for “CUGGUGUGAGGAUAUCAGGACACGCCCGCGGACGUGUCAAAUGAGAAGGCACAUGAGGAUCACCCAUGUGGGAC [Onzausin] (puzzle: Exclusion 4)” it is 0.0317 µM.
Take “CUGUGCUGACGGAGAUCCAACAUGAGGAUCACCCAUGUCUCAAAAGCUUUUUGCUCGUCUUAUCCUCCUCAGUACAC [Mat - Sensor, turn-off var - Eli Mod - D56] (Eterna round: R97, puzzle: Sensor, turn-off variant 1)”: the “apparent KD of MS2 coat protein” value (input ligand: FMN 200 uM) came to 0.0177 µM and the “apparent KD of MS2 coat protein” value (input ligand: none) was 0.0172 µM.
For “CUGUUUUUCGCAGGAUAUGCUCCUCCUUUAUUUGCAGAAGGGCGUUAAACAUGAGGAUCACCCAUGUAUGGUAAUGACAUUUUC [JR_ExcNG1_Sub063] (Eterna round: R96, puzzle: Exclusion NG 1)”, the “apparent KD of MS2 coat protein” value (input ligand: FMN 200 uM) worked out at 0.135 µM, the “apparent KD of MS2 coat protein” value under setting [4] turned out to be 0.0208 µM and the “apparent KD of MS2 coat protein” value (input ligand: none) is 0.0296 µM.
“CUUAAACAUGAGGAUCACCCAUGUCAGGAUAUGAUACUAUGUACUUCGGUACAUAGUAUCAGAAGGGAUAUAAA [Ex1-3: 65] (puzzle: Exclusion 1)”: the “apparent KD of MS2 coat protein” value under setting [1] amounted to 0.0393 µM.
On to “CUUAGACAUGAGGAUCACCCAUGUGAGGAUAUGAUGCGAUCGUGCUGACAUGAUCGCAUCAGAAGGCACAUAUG [JL-ex1-01 Hyphema Mod2] (Eterna round: R96, puzzle: Exclusion 1)”, for which the “apparent KD of MS2 coat protein” value turned out to be 0.242 µM (input ligand: FMN 200 uM), 0.101 µM under setting [4] and 0.115 µM (input ligand: none).
“CUUAGACAUGAGGAUCACCCAUGUGAGGAUAUGAUGCGAUCGUGCUGACAUGAUCGCAUCAGAAGGCACAUAUG [JL-ex1-01 Hyphema Mod2] (puzzle: Exclusion 1)”: the “apparent KD of MS2 coat protein” value under setting [1] was found to be 0.12 µM.
As for “CUUAUGGUCCAUACCUAGAACAUGAGGAUCACCCAUGUAAUACAUGACACCUACCUUAAGCACAGCUCGUCUUGUAG [Eternabot (Original) Solution 30] (Eterna round: R97, puzzle: Sensor, turn-off variant 1)”, the “apparent KD of MS2 coat protein” value by setting is: (input ligand: FMN 200 uM) 0.0489 µM; (input ligand: none) 0.057 µM.
In the case of “CUUCCCAAAGGAUAUCACGGUAAUAACAUGAGGAUCACCCAUGUGCAAUUCGUGUCCCUGUGAGAAGGUUGAGAAG [Anlabe] (puzzle: Exclusion 5)”, the “apparent KD of MS2 coat protein” value under setting [2] came out at 0.0179 µM, the “apparent KD of MS2 coat protein” value under setting [1] stood at 0.0111 µM and the “apparent KD of MS2 coat protein” value under setting [3] was determined as 0.012 µM.
